Measured values reported in patent publication US20190023807A1 (CRESCENDO BIOLOGICS, published 2019).

Experiments:
[1] = target: T1, recombinant human PSMA (R&D, cat. no. 4234-ZN) (human, UniProt Q04609 44-750); test: periprep/phage screen, rhPSMA
T1 construct: also called rhPSMA; Recombinant PMSA

[2] = target: cynomolgus PSMA, full-length, expressed on CHO cells (cynomolgus, UniProt A0A2K5VNZ0 1-750); test: cell-based or functional assay
[3] = target: human PSMA (prostate specific membrane antigen), full-length, expressed on cells (human, UniProt Q04609 1-750); test: cell-based or functional assay
Chain of human PSMA (prostate specific membrane antigen), full-length, expressed on cells (Q04609 whole entry): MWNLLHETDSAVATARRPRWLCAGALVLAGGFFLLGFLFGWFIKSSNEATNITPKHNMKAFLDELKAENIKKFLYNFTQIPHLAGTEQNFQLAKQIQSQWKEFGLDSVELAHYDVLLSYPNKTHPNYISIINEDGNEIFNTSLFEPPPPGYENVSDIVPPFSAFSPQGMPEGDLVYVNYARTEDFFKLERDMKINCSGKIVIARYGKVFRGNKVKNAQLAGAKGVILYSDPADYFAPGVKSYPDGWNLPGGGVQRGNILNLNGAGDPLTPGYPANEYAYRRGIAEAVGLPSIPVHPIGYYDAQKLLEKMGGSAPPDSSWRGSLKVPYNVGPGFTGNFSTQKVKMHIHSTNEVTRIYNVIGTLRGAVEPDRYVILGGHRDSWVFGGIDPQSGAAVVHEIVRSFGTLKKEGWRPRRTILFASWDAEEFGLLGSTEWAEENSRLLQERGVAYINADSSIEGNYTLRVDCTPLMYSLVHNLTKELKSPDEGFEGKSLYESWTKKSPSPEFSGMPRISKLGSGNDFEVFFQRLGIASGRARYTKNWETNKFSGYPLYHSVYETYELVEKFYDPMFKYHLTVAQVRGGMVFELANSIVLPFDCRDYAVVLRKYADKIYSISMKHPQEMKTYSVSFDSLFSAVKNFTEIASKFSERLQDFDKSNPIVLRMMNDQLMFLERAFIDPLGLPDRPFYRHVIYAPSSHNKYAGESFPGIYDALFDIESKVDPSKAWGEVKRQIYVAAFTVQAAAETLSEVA

T1 sequence (Q04609 44-750 limits assumed): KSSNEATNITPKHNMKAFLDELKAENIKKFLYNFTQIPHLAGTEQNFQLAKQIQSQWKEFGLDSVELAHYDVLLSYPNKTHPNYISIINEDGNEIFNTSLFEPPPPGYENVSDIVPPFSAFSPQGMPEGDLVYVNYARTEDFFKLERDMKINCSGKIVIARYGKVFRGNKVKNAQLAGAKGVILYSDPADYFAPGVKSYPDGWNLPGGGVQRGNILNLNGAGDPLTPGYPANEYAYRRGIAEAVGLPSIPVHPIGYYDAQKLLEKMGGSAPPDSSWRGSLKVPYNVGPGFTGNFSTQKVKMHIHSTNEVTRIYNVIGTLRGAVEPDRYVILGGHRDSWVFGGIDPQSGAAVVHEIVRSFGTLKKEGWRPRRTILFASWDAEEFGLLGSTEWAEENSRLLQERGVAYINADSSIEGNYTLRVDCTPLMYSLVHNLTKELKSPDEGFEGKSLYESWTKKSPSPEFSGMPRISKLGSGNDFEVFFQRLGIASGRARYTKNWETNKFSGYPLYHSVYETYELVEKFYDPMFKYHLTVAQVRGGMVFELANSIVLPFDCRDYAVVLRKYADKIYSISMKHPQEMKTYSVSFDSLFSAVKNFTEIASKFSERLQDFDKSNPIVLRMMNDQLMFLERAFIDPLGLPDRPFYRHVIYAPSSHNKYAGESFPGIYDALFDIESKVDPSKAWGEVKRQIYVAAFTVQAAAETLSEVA

binding result [1] | Binder | His-ZAP cell killing, cyno PSMA Average EC50 [2] | His-ZAP cell killing, human PSMA Average EC50 [3]
no binding | single VH domain antibody 9.1 (VHH, human single VH domain (Humabody); not shown: C-terminal His tag) VHH: QVQLQQWGAGLLKPSETLSLTCAVYGGSFSGHYWSWIRQPPGKGLEWIGDINHSGSTNYNPSLKSRVTISVDTSKNQFSLKLSSVTAADTAVYYCVRDYGDSRSLFDYWGQGTLVTVSS | – | –
– | 1.11-6GS-2.1 (bispecific antibody, not shown: small tags and cut ends) EVQLLESGGGLVQPGGSLRLSCAASGFSFSSYALSWVRQAPGKGLEWVSSIGENNDTTDYADNVKGRFTISRDNSKNTLYLQMNSLRVEDTAVYYCVKDGVHWGQGTLVTVSSGGGGSGGGGSGGGGSGGGGSGGGGSGGGGSEVQLVESGGGVVQPGRSLRLSCAASGFSFSGYGMHWVRQAPGKGLEWVAYISYDGSNKYYADSVKGRFTISRDNSKNTLYLQMNSLRAEDTAVYYCAKDPAWGLRLGESSSYDFDIWGQGTMVTVSS | 12 pM | 17 pM
– | 1.11-6GS-2.17 (bispecific antibody, not shown: small tags and cut ends) EVQLLESGGGLVQPGGSLRLSCAASGFSFSSYALSWVRQAPGKGLEWVSSIGENNDTTDYADNVKGRFTISRDNSKNTLYLQMNSLRVEDTAVYYCVKDGVHWGQGTLVTVSSGGGGSGGGGSGGGGSGGGGSGGGGSGGGGSEVQLVESGGGVVQPGRSLRLSCAASGFSFSGYGMHWVRQAPGKGLEWVAYISYDASNKYYADNVKGRFTISRDNSKNTLYLQMNSLRAEDTAVYYCAKDPAWGLRLGESSSYDFDIWGQGTMVTVSS | 8.1 pM | 7.9 pM
– | 1.18-6GS-2.17 (bispecific antibody, not shown: small tags and cut ends) EVQLLESGGGLVQPGGSLRLSCAASGFSFSSYALSWVRQAPGKGLEWVSSIGENNATTDYAASVKGRFTISRDNSKNTLYLQMNSLRVEDTAVYYCVKDGVHWGQGTLVTVSSGGGGSGGGGSGGGGSGGGGSGGGGSGGGGSEVQLVESGGGVVQPGRSLRLSCAASGFSFSGYGMHWVRQAPGKGLEWVAYISYDASNKYYADNVKGRFTISRDNSKNTLYLQMNSLRAEDTAVYYCAKDPAWGLRLGESSSYDFDIWGQGTMVTVSS | 5.6 pM | 12 pM
– | 1.18-6GS-2.15 (bispecific antibody, not shown: small tags and cut ends) EVQLLESGGGLVQPGGSLRLSCAASGFSFSSYALSWVRQAPGKGLEWVSSIGENNATTDYAASVKGRFTISRDNSKNTLYLQMNSLRVEDTAVYYCVKDGVHWGQGTLVTVSSGGGGSGGGGSGGGGSGGGGSGGGGSGGGGSEVQLVESGGGVVQPGRSLRLSCAASGFSFSGYGLHWVRQAPGKGLEWVAYISYDKSNKYYADKVKGRFTISRDNSKNTLYLQMNSLRAEDTAVYYCAKDPAWGLRLGESSSYDFDIWGQGTMVTVSS | 10 pM | –
– | 1.1-6GS-2.15 (bispecific antibody, not shown: small tags and cut ends) EVQLLESGGGLVQPGGSLRLSCAASGFSFSSYAMSWVRQAPGKGLEWVSSIGENDGTTDYADSVKGRFTISRDNSKSMLYLQMNSLRVEDTAVYYCVKDGVHWGQGTLVTVSSGGGGSGGGGSGGGGSGGGGSGGGGSGGGGSEVQLVESGGGVVQPGRSLRLSCAASGFSFSGYGLHWVRQAPGKGLEWVAYISYDKSNKYYADKVKGRFTISRDNSKNTLYLQMNSLRAEDTAVYYCAKDPAWGLRLGESSSYDFDIWGQGTMVTVSS | 8.6 pM | –
– | 1.16-6GS-2.15 (bispecific antibody, not shown: small tags and cut ends) EVQLLESGGGLVQPGGSLRLSCAASGFSFSSYALSWVRQAPGKGLEWVSSIGENNHTTDYADTVKGRFTISRDNSKNTLYLQMNSLRVEDTAVYYCVKDGVHWGQGTLVTVSSGGGGSGGGGSGGGGSGGGGSGGGGSGGGGSEVQLVESGGGVVQPGRSLRLSCAASGFSFSGYGLHWVRQAPGKGLEWVAYISYDKSNKYYADKVKGRFTISRDNSKNTLYLQMNSLRAEDTAVYYCAKDPAWGLRLGESSSYDFDIWGQGTMVTVSS | 11 pM | –
– | 1.18-6GS-2.22 (bispecific antibody, not shown: small tags and cut ends) EVQLLESGGGLVQPGGSLRLSCAASGFSFSSYALSWVRQAPGKGLEWVSSIGENNATTDYAASVKGRFTISRDNSKNTLYLQMNSLRVEDTAVYYCVKDGVHWGQGTLVTVSSGGGGSGGGGSGGGGSGGGGSGGGGSGGGGSEVQLVESGGGVVQPGRSLRLSCAASGFSFSGYGTHWVRQAPGKGLEWVAYISYDGSNKYYAAPVKGRFTISRDNSKNTLYLQMNSLRAEDTAVYYCAKDAAWGLRLGESSSYDFDIWGQGTMVTVSS | 14 pM | 15 pM
– | 1.1-6GS-2.1 (bispecific antibody, not shown: small tags and cut ends) EVQLLESGGGLVQPGGSLRLSCAASGFSFSSYAMSWVRQAPGKGLEWVSSIGENDGTTDYADSVKGRFTISRDNSKSMLYLQMNSLRVEDTAVYYCVKDGVHWGQGTLVTVSSGGGGSGGGGSGGGGSGGGGSGGGGSGGGGSEVQLVESGGGVVQPGRSLRLSCAASGFSFSGYGMHWVRQAPGKGLEWVAYISYDGSNKYYADSVKGRFTISRDNSKNTLYLQMNSLRAEDTAVYYCAKDPAWGLRLGESSSYDFDIWGQGTMVTVSS | 12 pM | –
– | 1.16-6GS-2.22 (bispecific antibody, not shown: small tags and cut ends) EVQLLESGGGLVQPGGSLRLSCAASGFSFSSYALSWVRQAPGKGLEWVSSIGENNHTTDYADTVKGRFTISRDNSKNTLYLQMNSLRVEDTAVYYCVKDGVHWGQGTLVTVSSGGGGSGGGGSGGGGSGGGGSGGGGSGGGGSEVQLVESGGGVVQPGRSLRLSCAASGFSFSGYGTHWVRQAPGKGLEWVAYISYDGSNKYYAAPVKGRFTISRDNSKNTLYLQMNSLRAEDTAVYYCAKDAAWGLRLGESSSYDFDIWGQGTMVTVSS | 11 pM | 20 pM
– | 1.11-6GS-2.22 (bispecific antibody, not shown: small tags and cut ends) EVQLLESGGGLVQPGGSLRLSCAASGFSFSSYALSWVRQAPGKGLEWVSSIGENNDTTDYADNVKGRFTISRDNSKNTLYLQMNSLRVEDTAVYYCVKDGVHWGQGTLVTVSSGGGGSGGGGSGGGGSGGGGSGGGGSGGGGSEVQLVESGGGVVQPGRSLRLSCAASGFSFSGYGTHWVRQAPGKGLEWVAYISYDGSNKYYAAPVKGRFTISRDNSKNTLYLQMNSLRAEDTAVYYCAKDAAWGLRLGESSSYDFDIWGQGTMVTVSS | 9.5 pM | 10 pM
– | 1.16-6GS-2.1 (bispecific antibody, not shown: small tags and cut ends) EVQLLESGGGLVQPGGSLRLSCAASGFSFSSYALSWVRQAPGKGLEWVSSIGENNHTTDYADTVKGRFTISRDNSKNTLYLQMNSLRVEDTAVYYCVKDGVHWGQGTLVTVSSGGGGSGGGGSGGGGSGGGGSGGGGSGGGGSEVQLVESGGGVVQPGRSLRLSCAASGFSFSGYGMHWVRQAPGKGLEWVAYISYDGSNKYYADSVKGRFTISRDNSKNTLYLQMNSLRAEDTAVYYCAKDPAWGLRLGESSSYDFDIWGQGTMVTVSS | 13 pM | 14 pM
– | 1.1-6GS-2.22 (bispecific antibody, not shown: small tags and cut ends) EVQLLESGGGLVQPGGSLRLSCAASGFSFSSYAMSWVRQAPGKGLEWVSSIGENDGTTDYADSVKGRFTISRDNSKSMLYLQMNSLRVEDTAVYYCVKDGVHWGQGTLVTVSSGGGGSGGGGSGGGGSGGGGSGGGGSGGGGSEVQLVESGGGVVQPGRSLRLSCAASGFSFSGYGTHWVRQAPGKGLEWVAYISYDGSNKYYAAPVKGRFTISRDNSKNTLYLQMNSLRAEDTAVYYCAKDAAWGLRLGESSSYDFDIWGQGTMVTVSS | 7.8 pM | –
– | 1.16-6GS-2.17 (bispecific antibody, not shown: small tags and cut ends) EVQLLESGGGLVQPGGSLRLSCAASGFSFSSYALSWVRQAPGKGLEWVSSIGENNHTTDYADTVKGRFTISRDNSKNTLYLQMNSLRVEDTAVYYCVKDGVHWGQGTLVTVSSGGGGSGGGGSGGGGSGGGGSGGGGSGGGGSEVQLVESGGGVVQPGRSLRLSCAASGFSFSGYGMHWVRQAPGKGLEWVAYISYDASNKYYADNVKGRFTISRDNSKNTLYLQMNSLRAEDTAVYYCAKDPAWGLRLGESSSYDFDIWGQGTMVTVSS | 11 pM | 15 pM
– | 1.18-6GS-2.1 (bispecific antibody, not shown: small tags and cut ends) EVQLLESGGGLVQPGGSLRLSCAASGFSFSSYALSWVRQAPGKGLEWVSSIGENNATTDYAASVKGRFTISRDNSKNTLYLQMNSLRVEDTAVYYCVKDGVHWGQGTLVTVSSGGGGSGGGGSGGGGSGGGGSGGGGSGGGGSEVQLVESGGGVVQPGRSLRLSCAASGFSFSGYGMHWVRQAPGKGLEWVAYISYDGSNKYYADSVKGRFTISRDNSKNTLYLQMNSLRAEDTAVYYCAKDPAWGLRLGESSSYDFDIWGQGTMVTVSS | 5.8 pM | 5.7 pM
– | 1.1-6GS-2.17 (bispecific antibody, not shown: small tags and cut ends) EVQLLESGGGLVQPGGSLRLSCAASGFSFSSYAMSWVRQAPGKGLEWVSSIGENDGTTDYADSVKGRFTISRDNSKSMLYLQMNSLRVEDTAVYYCVKDGVHWGQGTLVTVSSGGGGSGGGGSGGGGSGGGGSGGGGSGGGGSEVQLVESGGGVVQPGRSLRLSCAASGFSFSGYGMHWVRQAPGKGLEWVAYISYDASNKYYADNVKGRFTISRDNSKNTLYLQMNSLRAEDTAVYYCAKDPAWGLRLGESSSYDFDIWGQGTMVTVSS | 11 pM | –
– | 1.11-6GS-2.15 (bispecific antibody, not shown: small tags and cut ends) EVQLLESGGGLVQPGGSLRLSCAASGFSFSSYALSWVRQAPGKGLEWVSSIGENNDTTDYADNVKGRFTISRDNSKNTLYLQMNSLRVEDTAVYYCVKDGVHWGQGTLVTVSSGGGGSGGGGSGGGGSGGGGSGGGGSGGGGSEVQLVESGGGVVQPGRSLRLSCAASGFSFSGYGLHWVRQAPGKGLEWVAYISYDKSNKYYADKVKGRFTISRDNSKNTLYLQMNSLRAEDTAVYYCAKDPAWGLRLGESSSYDFDIWGQGTMVTVSS | 9 pM | –
no binding | single VH domain antibody 8.1 (VHH, human single VH domain (Humabody); not shown: C-terminal His tag) VHH: QVQLQQWGAGLLKPSETLSLTCAVYGGSFSGYYWSWIRQPPGKGLEWIGEINHSGSTNYNPSLKSRVTISVDTSKNQFSLKLSSVTAADTAVYYCARGPIPATAIPDAFDIWGQGTMVTVSS | – | –
